Drawing on the NTF2 design screens of Basanta et al. (2020), this text covers protease stability score for 47 sequences.

The data set in a line: protease stability score; higher = more stable; yeast display proteolysis, trypsin and chymotrypsin.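 Note: log10 excess protease needed over predicted unfolded state with 0 meaning unfolded.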
The sequence “DEDALKQMHENLENIKEGDPDKIKKMFDENARVEVGDKVLNGRDQASKFWSELRDQINIHIRDVKLSVSGEEVTINIDARFTHNGQPQTSIFRIEAELHNGTIKSLRVKLDG” gave a protease stability score of 2.02.
Take “DEDDRRRQARKLASALVTGNHQEVRELADKDVHAEYGDRRYRGREKLDEAAKDMHKQADSLTVRDVKFTGDKVNIDLQLNINGRRLTVSLTAQLENGRFKEIVVQVTDPETLRHVKQ”: the protease stability score was -0.03.
In the case of “DEHKIATKQMEEFTEAMKRGDEDRMKSNADENVRIEVGDKEVHGQNQFKQTVANILKRVDHIRIKLRDWRNHNGRVDLVYQVNFDHNGRHKNDKYTVRMRIQGDKAKIEHVKAP” it was 0.349.
In the case of “DKEENHMFQQAFTVEWTGDPEKVNRLMDPNAKIEVGEKRVHGMDKYAREVKREHDDMRVDVRTYSNDVHNGEVDVKVNYVKNNNGRPRHVSQSIRAHASNGKVKSVQVTERG” it was -0.299.
In the case of “DDEEALKVIHHFIEVMMSGDEETARRLADKNVEAHYGDRTYHGSEEAVRALIEWARSVDNMRIDSVTQEGNEVKVHVVAHFDGRRVEVDIVIEAHNGKINFVTINPDDIRRMKQ” it was 0.831; in that of “DEEELDNAKEMVKALLHGNPDRAKQLADPNAHYHVGDKKVHGNDNWAKLVRKERQELRVKIDRVDIKSKGNKVSVDIDVVHDHNGQPQKRNYRLHVEIHNGKVRNVKIQHDG”, 0.066; in that of “DEEVAEQAAKLLEHNDFEKLVDMVDPNVDVEYGDKTVSGRNRVKRVMEKWTRRYDHYEIHTYSISNGRLSADVRAVVNGREVRYVQTIRVHNGRIQKMKIDVTDEDDERNLRKLES”, -0.161.
On to “DEEDLRKQANEVAEMFMHGDPTDAREQFDKHAEVQYGDKVVHGKEQAAQLVKEFRDNVDRVELKRVEAHGDKVTVTVVFTVNGRKVVIVFEMRIHNGKIKSVDAHVTSEELHKRMQD”, for which the protease stability score is 0.155.
Next, “DEEKMDRAKEHYKAIQKGDHERARQLADPNATFVIGDKTIHGREEYADQMKKRRDHIRIEIKSVTFNEEEGRVDVKIEQVRQHNGKPKKFRQDVKFDVQGDKIHQISVTEKK”: 0.189; “DDEERHKDAQKAMHLYQRGNPDEMDRLMDPNVKVRVGDETYHGREQANRAFKKIRDRVDHINVKSVSVHGNRINIVAEVNINGRNDILRVIIDYHNGRARRVIITHK”: 0.204; “DEEEQQKNAETADRNVKTGNWEEIKKMVDKDARVKIGDTTLHGREDVSREFKRWREDADHVEMKRVSASNGRAVVEVEYTVNGRKKKFTMIMEMHNGRIKHFRNERS”: 0.251.
In the case of “DEEDQRTIAKEVVKVMETGDEDRMRELVDEDVKVQYGDKTVHGREQAQRAMKDLRRRADHITMDSVTVHNGEITIKAQLKYNGQNQRVVVQVRVHNGKIKEFRFREQ” it was 1.34; in that of “DDDNARELVKRIMKAWQTGDEKELNKNMDPNVRIEVGDKTWHGREDVSKMARELRKQVDSIEVKDVEVQGNHANADVVQVVNGEQKHYLVIIDFHNGKARRLKIEER”, 2.11; in that of “DEEAKDNFETAFKAEMTGDPQKYKKNVDPNAKVTIGDKTVRGREEVAKQLQHRRKESHVEFTDMKVKVQGDKVVVKLKAVDNENGRPDTAHYDIQFHASDGRITDLKVNKTK”, -0.049.
In the case of “DEHLVRLADRLLTAVRHGDEDRWVEQFDPNATVKIGDKELHGRSQIKTELERERDTSRVNVQRFSIEDQGDKAVVDVEYVITKNGRPQKDRAKATYNVNNGRFKNASMQKVS”, the protease stability score is -0.413.
In the case of “DEEHAESVKTLFKNLRTNNEDEVEKLVDPNARMKYGDKQVHGRDEIKHMIQRLKDELHIEMDVKRMNVHNGQADLKFDITVVRNGKPDTAKANVRVQFSNGRIHDFTVQLNK” it was 0.347.
On to “DEEVHKAITHYIEALHKGDPDRAANQMDENVRIEIGDKSITGREHAKHHLERLFKQMEFRITVDRVEVHNGTATAEIHWSSDRNGKPDSNTRRMTAEVHNGKIKQIVFKSDS”, for which the protease stability score amounted to 1.02.
Next, “DDDAIKRFHEQVDNEQHNNEEEQEKNVDPNATVNVGDKTYHGREKWREVVKRENEEMRVKYQHVTFRRHPGRVIVRFRIVNDHNGKPTETDVNANYQMHNGRIRQVNRRTDG”: 0.162; “DHEAEKRIKKWVDAIHTGDEEQLKRLADPNVKVNVGNYSVRGRENLADMVSRMRDEIRLTYRDVKMDVTGDHARMDADVERDHNGRPERFELKANFRWRNGKITEIDAHWHQ”: 1.42.
Next, “DEEQIKDLLERLMRAQQHGDPDRMANYLDENVRVRIGEKDISGREQYKDWNQEQVERIDHFQVHHIEVQGDKAKIDMEMKVDGKRFRFTVRMHIRDGRIDEFRFDPTVQRKIET”: 0.97; “DEEQLKTIREWMNQVQRGNFDQWAKNLDKNAHVDYGDRSVTGREEWQRLMRRQKREIRMQVKVDHVSAQGENIEVQARVRFTHNGQPDETNNKITAKVHNGRVKHMRVEEDK”: 0.248.
With “DEQIVHRAKEMDKAFNRGDPDLFNKMADENARVEVGDNVLNGRSDYKRYMDQVRKDLNVEIKSVHHQKRPNHARVKVDQVMNHNGQPRRRHIDIKIRAHNGTAKNIHFREDG”, the protease stability score is -0.326.
“DEDLSRNFHQFIEALKQNDTDRMKELIDPNARMRYGDKQLHGRENILNYWKKLNDQARVDLDLKSVRNDENHIRYNYKMRVHVNGRPVEDTATAEIRATNGRIVDIYIDFDPEKLRQIES” showed a protease stability score of 2.34.
Next, “DEKANTQAKRLLDVMNSGDEEKILRQMDEDVEVVIGDTKVKGREDIRRWMQKVLKELRVVYDLKHLRAHNGKIDIKAKMHNNHNGQPNSNDVIIIAKIHNGRFKHFEVHTQS”: 0.804.
“EEEAFDRAQQFVRAMETGDTTKLEQLADKDVRFDVGDKEVQGREEYSKTVHELKKEMRFRYEFKHYTVTGDEVDARVEFEYEHNGQPRRTQAKVTFIFQGDKLESINMKESQ” had a protease stability score of 0.146.
Next, “DEDRVRRHLEKAFKVIQNGNEEEAKKIGAPDVEYHYADKELEGEEAVIVAVRIVKKIGAEVKTQEEEVKGNEMRATFQYKKGDTTVQTKATVVYEGDKLKKARVELSDEVKKIIHQG”: -0.111.
Take “DEEFNKEVKKMFDNLEKGNEEEYLRMLDENAKAQYGDHDVRGREELKKELHRQRKEIRVKYQSVDIRMHNGELSVRFRAEVVVNGRPHTVERTQSAKVQNGRVQSMKLKIDEEQKERLEG”: the protease stability score was -0.251.
Next, “DEEHMQELAEELVKVMKRGDFKRYLDLASENAEVTYGEKSVRGREDLHKMQEELEKKVDHIHMKDFRVSGNQIHLFFVVHHDGRSREVVVTIEYHNGRITSVTYDEK”: -0.075; “DERNKKVLRQFMHAQMRGNPEKAKKLADPNAKFQVGDKTVHGMDEWVRQLDRKKKQIRFEVRVDSVRVHGDNVTMHVEYRATYNGKPYSDKVDYSARLHNGKITKLSAEMDPEFQRELDT”: 0.296.
In the case of “DEETKAHKWAEKFQRALKDGDPKKMENLMDKNVKAQYGDKTIHGDEEANSWVRRMKHQVDHVSATITRVEADNGKVIVRMTVVVDHNGREQRYEVNLEAKDHNGHIHLTRLKVG” it was 0.262; in that of “DQEEAKKVAEQAIKYVENGNLTELMDMLKDGGEYQVADDKKHGKEVLYKLVKILQRLGVEVEFKRTEIEGNTVTTDVDYRLGDEEATAQAHAEVQGGRIDRVQIDADEHLKKWIKHG”, 0.606; in that of “DEKQALDVAHEAARAVAEGDDQKLREHMDPNATMEYGDKQVHGRENIMRVAKEFRDRADNVEIKSVHLTGNKVNVHVLLTHNGHTQRVRIDAKAHNGRVKSIRLDDK”, 1.06.
“DEQDQAKKFNDEVRKIFETGNFRQFARLLDKNVTAEVGDQEVHGKEQAHKWAEDVWRTFDHIHYNMVDVDVENGRVEVHVQLTYDHNGTTERRTYVMELKLSNGRLKIVHMKQG” registered a protease stability score of 0.809.
Next, “DEEALNNLHEFFKHWNTGNPHELMKLADPNVRFQVGEKVIHGREEFMKDIKRIREELRQEIDVRDVKVQGEKLIVKATRSEERNGKPSSDTIHMTARVHNGRIKSVDIKSTS”: 0.435; “DEENEQLFNEFLKAMEHGDPNRLNQLMDPDVHIRVGDKQIHGREEAAREIVRQMKEQNRHIDSIEVSAENGELTVNVEMFQTHDGKPKKYTYRAKIVFENGKIKHIDRKHSQ”: 0.884; “DDREEARKMLHKADRALNDGDPRSAQNLVDENAQVVYGDKRYSGDQQAADVMVSLRHQYDHLSLEIDRLRVDGNRVHVDATLTAQRNGSTLHSKLNFVFSKKNGRLRVSHLVIG”: 0.183.
In the case of “DDRQVEELVRIMQRGNFKDLASNLDENVHVKVGNRTYHGREKAETVFNRLQQRIDHYEIIHVQERPNRAQVRFRFRVNGRTVEATVKAQAHNGRIKEMNLQARDEDAQREIDHAID” it was 1.24.
For “EEKQKTHVERFIEILREGDPQKAREMADKDAKFVYGDKSVHGMDEFRRQVERRNKQIHIDLKVREVDVHGNNVKIIIDAQEDHNGNPDSFKADMEVVYHNGRIKSASMDKQT”, the protease stability score amounted to 0.074.
In the case of “DEDINKMVKEFIRNMQNGNHSRLAQLADPNARVQIGDKTLHGREDLERHVRELTERSRVEYKSVDVKVHNGRAHLHLDVVVHHNGRPQRSRVQAVFTAQGDKIKDIRVESNQ” it was 0.116.
In the case of “DDDEVRKAMRAVTNFFKGNPDQVMELIDPNAHIQVGDKSVTGREQARHLVKDVKEEQQFDVQSVDARDHGSKIVINVRFEVRHNGQPREKFMVLEMSVHNGKIQEMRVRTDS” it was 0.946.
Consider “DEEEAKKVVETAVKYLQKGNVKQLKDIGHEGVDYQVADNKKKGPDAIEDVLRYLEKLGVRMEVKKQEVKGDTAHTVVDYQQGDTKVRATVEADIQGGRIDRVQVNVPETLKKILKHG”, for which the protease stability score is -0.284.
Next, “DEEENTKVMERFLDAVKRGNEDDLHELADKDVRLTVGDKEYHGREEIMEYLHEWRKKVDHIDFDSYTVRGNTVEVHFQVHDNGQNEDVVVQVEVHNGRVKTVRYRHK”: 1.72; “DEEEAKKVVDQAVKYFQNGDAEKLRDLGKEGVKYRVADVEAHGPEVVLKAVERLKRQGVKIQYRKVEVKGDTVTTQLDYQQGDRTFTVTIEAEVKGGKIDRVEADANEDAKKIVKHG”: 0.172; “DHEEKAKKFFDDLLRAVKHNDETQLERLFDKNVRFNVGEHNFRGREEFVKMVRTMVEQVDHVTATIVSIETNGDKVNLVAQWDMSHNGNSKRIRVLVVLDDNNGRVVAREMSEK”: 2.2.
As to “DEDKTMRELIRRLDKNLKEGDPSKAREQADKDARANIGEKRVTGRKRLDEEVKTLLDSYDHIRVHLKEVRVENGSAVARVDYHYDQNGQEKSKEVILHARFQGDRLTLEQMTMP”, the protease stability score worked out at 0.043.
Next, “DDTQAREQAHRFMEAMRTGDPDTLRKLMDKDVRVTVGDHTYHGRESVAHAVITMVESIDHISVKDIKVENGTARVDFVVTVNGRRQSYDAVLEVDNGRIRYVQMHEK”: 0.857.
In turn, “DEDAVRVMETYMKIYETGNPEELNRLVDPNVKFNIGDQRIKGREHARKFWRKILQHSRVELRRLDVHTRPNRVEARAEVVVNHNGKPKNFQFTFSAHLHNGRIKEVTIKHSK” yielded a protease stability score of 1.34.
